Assay results taken from the nanobody polyreactivity screen of Harvey et al. (2022).

Assay: yeast display, Sf9 membrane polyspecificity reagent, FACS + sequencing; frameworks hold sequencing errors
Outline: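 Galactose induction of a Saccharomyces cerevisiae BJ5465 synthetic nanobody display library ran 36–48 hours. The cells were then stained for 1 hour at 4 °C with 10% biotinylated, detergent-solubilized Sf9 membrane reagent, pulled down on streptavidin microbeads and FACS-sorted into low and high (top ~1%) gates on expression and reagent-binding fluorescence. Labels for polyreactivity follow the gate of origin.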

| Sequence | polyreactivity (PSR sort gate) |
| --- | --- |
| QVQLVESGGGLVQAGGSLRLSCAASGITFYRYAMGWYRQARGKERELVADITSSGGSTYYADSVKGRFTISRDNAKNTVYLQMNSLKPEDTAVYYFNAAYYFSRIVYPYDYWGQGTQVTVSS | high polyreactivity |
| QVQLVESGGGLVQAGGSLRLSCAASGITFYSNAMGWYRQAPGKERELVATITRGGSTYYADSVKGRFTISRDNAKNTVYLQMNSLKPEDTAVYYCAADYSYRGREYGYWGQGTQVTVSS | low polyreactivity |
| QVQLVESGGGLVQAGGSLRLSCAASGITFYSYAMGWYRQAPGKEREFVAAINWRGGNTYYADSVKGRFTISRDNAKNTVYLQMNSLKPEDTAFYYCARDGIYAYWVDPYDYWGQGTQVTVSS | high polyreactivity |
| QVQLVESGGGLVQAGGSLRLSCAASGITFYTYAMGWYRQAPGKERELVAAISTGGSTYYADSVKGRFTISRDNAKNTVYLQMNSLKPEDTAVYYCAARTFSYPRRAYYYWGQGTQVTVSS | high polyreactivity |
| QVQLVESGGGLVQAGGSLRLSCAASGITFYTYAMGWYRQAPGKERELVAAITWRGGRTSYADSVKGRFTISRDNAKNTVYLQMNSLKPEDTAVYYCAKEAHPPWTSQDVFRSYDYWGQGTQVTVSS | low polyreactivity |
| QVQLVESGGGLVQAGGSLRLSCAASGITFYVNAMGWYRQAPGKERELVAAISRSGGSTYYADSVKGRFTISRDNAKNTVYLQMNSLKPEDTAVYYCNKEDYGLYPYYVSVGYDYWGQGTQVTVSS | low polyreactivity |
| QVQLVESGGGLVQAGGSLRLSCAASGITFYVNTKGWYRQAPGKEREVVAAIDWTDGGTYYADSVKGRFTISRDNAKNTVYLQMNSLKPEDTAVYYCALDYYWDIIGLYGYLAYDLDYWGQGTQVTVSS | low polyreactivity |
| QVQLVESGGGLVQAGGSLRLSCAASGITFYVYAMGSYTQAPGKEREFVAAISTRDGTTYADSEKGRFTISRDNAKNPFYLEMNSLKPVDTAVDYCAAAYYYDGQQGDFDYWGQGTQVTVSS | low polyreactivity |
| QVQLVESGGGLVQAGGSLRLSCAASGITFYVYAMGWYRQAPGKERELVAAISRRGGSTSYADSVKGRFTISRDNAKNTVYLQMNSLKPEDTAVYYCAKDTTYYQVYGYGYDYWGQGTQVTVSS | low polyreactivity |
| QVQLVESGGGLVQAGGSLRLSCAASGITFYVYAMGWYRQPPGTERDLVAAISRRGGSTSYADSVKGRFTISRDTAKNTVYLEMNSLKPEDTAVDYCAAGPFYGGIVRRYDYWGQGTQVTVSS | low polyreactivity |
| QVQLVESGGGLVQAGGSLRLSCAASGITFYVYTMGWYRQAPGKERELVAAINGSGGSTNYADSVKGRFTISRDNAKNTVFLQMNSLKPEDTAVYYCAADWSLRLYDYWGQGTQVTVSS | low polyreactivity |
| QVQLVESGGGLVQAGGSLRLSCAASGITFYYNVMGWYRQAPGKERELVASITSGGSTYYADSVKGRFTISRDNAKNTVYLQMNSLKPEDTAVSYCNKDHALYVDFSYDYWGQGTQVTVSS | low polyreactivity |
| QVQLVESGGGLVQAGGSLRLSCAASGITFYYYAMGWYRQAPGKERELVAAISRSGGSTYYADSVKGRFTISRDNAKNTVYLQMNSLKPEDTAVYYCANRKGGTLYNYWGQGTQVTVSS | high polyreactivity |
| QVQLVESGGGLVQAGGSLRLSCAASGITFYYYAMGWYRQAPGKERELVARISYGGGRTYYADSVKGRFTISRDNAKNTVYLQMNSLKPEDTAVYYCAARQGYRSYRRYDYWGQGTQVTVSS | high polyreactivity |
| QVQLVESGGGLVQAGGSLRLSCAASGITFYYYAMGWYRQAPGKERELVASIDNSGGSTYYADSVKGRFTISRDNEKNTVYLQMHSLKPEDTAVYFCAAVSRYYFLGVAFLDDYWGQGTLVTVSS | high polyreactivity |
| QVQLVESGGGLVQAGGSLRLSCAASGITFYYYTMGWYRQAPGKERELVAGITRGGRTYYADSVKGRFTISRDNAKNTVYLQMNSLKPEDTAVYYCAADYSYIYGFDYWGQGTQVTVSS | low polyreactivity |
| QVQLVESGGGLVQAGGSLRLSCAASGITIAGYAMGWYRQAPGKERELVAAITIGGRTYYADSVKGRFTISRDNAKNTVYLQMNSLKPVDTAVYYCAAARGFWWYDYWGQGTQVTVSS | high polyreactivity |
| QVQLVESGGGLVQAGGSLRLSCAASGITIFTYAMGWYRQAPGKERELVAAISGSGGSTYYADSVKGRFTISRDNAKNTVYLQMNSLKPEDTAVYSCAAEYTYGSPYDYWGQGTQVTVSS | low polyreactivity |
| QVQLVESGGGLVQAGGSLRLSCAASGITIQGYAMGWYRQAPGKERELVAAINDSGSSTYYADSVKGRFTISRDNAKNTFYLQMNSLKPEYTAVYYCAAYLWLWGQGTQVTVSS | low polyreactivity |
| QVQLVESGGGLVQAGGSLRLSCAASGITIRRYGMGWYRQAPGKERELVATITRDGRTYYADSVKGRFTISRDNAKNTVYLQMNSLKPEDTAVYYCARPARYSYGDGYWGQGTQVTVSS | low polyreactivity |
| QVQLVESGGGLVQAGGSLRLSCAASGITIRYYAMGWYRQAPGKERELVAAITRRGGSTSYADSVKGRFTISRDNAKNTVYLQMNSLKPEDTAVYYCNARKYTNQATYDYWGQGTQVTVSS | high polyreactivity |
| QVQLVESGGGLVQAGGSLRLSCAASGITITRYDMGWYRQAPGKERELVAAINWSGGRTYYADSVKGRFTISRDNAKYTVYLQMNSLKPEDTAVYYCNRALKYRRRDYWGQGTQVTVSS | high polyreactivity |

| Sequence | polyreactivity (PSR sort gate) |
| --- | --- |
| QVQLVESGGGLVQAGGSLRLSCAASGITITTYAMGWYRQAPGKERELVAAISSASSTYYADSVKGRFTISRDNAKNTVYLQMNSLKPEDTAVYYCAARVFKKYRPSGRYYYWGQGTQVTVSS | high polyreactivity |
| QVQLVESGGGLVQAGGSLRLSCAASGITIVNYVMGWYRKAPGKERELVAAISIGGGTYYADSVKGRFTISRDNAKNTVYLQINSLKPEDTAVYYCNASYGGLSFYIGVYVTGYDYWGQGTQVTVSS | low polyreactivity |
| QVQLVESGGGLVQAGGSLRLSCAASGITIVRYAMGWYRQAPGKERELVAAINRSGGSTYYADSVKGRFTISRDNAKNTVYLQMNSLKPEDTAVYYCAARLYGKYDPPGYYYWGQGTQVTVSS | high polyreactivity |
| QVQLVESGGGLVQAGGSLRLSCAASGITIYKYAMGWSRQAPGKERELVAVISRSGGSTYYADSVKGRFTISRDNAKNTVYLQMNSLKPEDTAVYYCAADYRYPRQSKYYYWGQGTQVTVSS | high polyreactivity |
| QVQLVESGGGLVQAGGSLRLSCAASGITIYNYAMGWYRQAPGKERELVAAITRSGGSTYYADSVKGRFTISRDNAKNTVYLQMNSLKPEDTAVYYCATGKYWRYDYWGQGTQVTVSS | high polyreactivity |
| QVQLVESGGGLVQAGGSLRLSCAASGITIYYNAMGWYRQAPGKARELVAAITQSGGSTFYADSVKGRFTISRDNAKNTVYLQMNSLKPEDTAVYYWGQGTQVTVSS | low polyreactivity |
| QVQLVESGGGLVQAGGSLRLSCAASGITLDRYDMGWYRQAPGKERELVAAISRSGVRTYYADSVKGRFTISRDNAKNTVYLQMNSLKPEDTAVYYCNKGYARRYASGYDYWGQGTQVTVSS | high polyreactivity |
| QVQLVESGGGLVQAGGSLRLSCAASGITLDYYAMGWYRQAPGKERELVASITSGGSTNYADSVKGRFTISRDNAKNTVYLQMNSLKPVDTAVYYCARDVNYPGSEGDYWGQGTQVTVSS | low polyreactivity |
| QVQLVESGGGLVQAGGSLRLSCAASGITLEDYDMGWYRQAPGKERELVAAITSGGSTNYADSVKGRFTISRDNAKNTVYLQMNSMKPEDTAVYYCNADFAIRWWYYFGSGYDYWGQGTQVTVSS | low polyreactivity |
| QVQLVESGGGLVQAGGSLRLSCAASGITLFGYAMGWYRQAPGKERELVAGISRRGGSTYYADSVKGRFTISRDNAKNTVYLQMNSLKPEDTAVYYCAAVYVQPPATAQHYYYWGQGTQVTVSS | high polyreactivity |
| QVQLVESGGGLVQAGGSLRLSCAASGITLFYYAMGWYRQAPGKERELVAAISWSGGSTYYADSVKGRFTISRDNAKNTDDLQMNSLKPEDTAVYYCNRVSRAPFDYWGQATQVTVSS | high polyreactivity |
| QVQLVESGGGLVQAGGSLRLSCAASGITLHEYVMGWYRQAPGKERELVAAISRRGDSTYYADSVKGRFTISRDNAKNTVYLQMNSLKPEDTAVYYCAARWYWYWSSWDYYSWGQGTQVTVSS | low polyreactivity |
| QVQLVESGGGLVQAGGSLRLSCAASGITLKRYAMGWYRQAPGKERELVAAITGRGGGTNYADSVKGRFTISRDNAKNTVYLQMNSLKPEDTAVYYCTAATYGDYSNLGYGYWGQGTQVTVSS | high polyreactivity |
| QVQLVESGGGLVQAGGSLRLSCAASGITLNRNAMGWYRQAPGKERELVAAISSGGNTYYADSVKGRFSISRDNAKNTVYLQMNSLKPEDTEVYYCAARQVQAPRSIGFYFWGQGTQVTVSS | high polyreactivity |
| QVQLVESGGGLVQAGGSLRLSCAASGITLRRNAMGWYRQAPGKERELVARISTTGGSTYYADSVKGRFTISRDNAKNTVYLQMNSLKPEDTAVYYCAARAPLGFWHYDYWGQGTQVTVSS | high polyreactivity |
| QVQLVESGGGLVQAGGSLRLSCAASGITLSNYAMGWYRQAPVKEREFVAALTRSGDSTYYADSVKGRFTISRDNAQNTVYLQMNSLKPEDTAVYYCPAEEHRYTEVYPTSTTDEYDYRGQGTQVTVSS | low polyreactivity |
| QVQLVESGGGLVQAGGSLRLSCAASGITLSYNDRGWYRQAHGKEREFVAAITGGGSTYYADSVKGRFTISRDNAKNTVYLQMNSLKPEDTEVYYCAAERWYAWTVLYTVSYGYWGQGTQVTVSS | high polyreactivity |
| QVQLVESGGGLVQAGGSLRLSCAASGITLTRYAMGWYRQAPGKERELVAAISTGGGSTYYADSVKGRFTISRDNAKNTVYLQMNSLKPEDTAVYYCAARIRFARGYPITRTYDYWGQGTQVTVSS | high polyreactivity |
| QVQLVESGGGLVQAGGSLRLSCAASGITLVTYAMGWYRQAPGKERELVAAISRSGGRTYYADSVKGRFTISRDNAKNTVDLQMNSLKPEDTAVYYCATRYHVGKDLYGYWGQGTQVTVSS | high polyreactivity |
| QVQLVESGGGLVQAGGSLRLSCAASGITLYGNAMGWYRQAPGKERELVAAITGRGGSTYYADSVKGRFTISRDNAKNTVYLQMNSLKPEDTAVYYCNKAQSRSQLYGYWGQGTQVTVSS | high polyreactivity |
| QVQLVESGGGLVQAGGSLRLSCAASGITLYRYAMGWYRPAPGKERELVADISSGGGTTYYADSVKGRFTISRDNAKNTVSLQMNSLKPEDTALYYCAADYGFRYPLYDYWGQGTQVTVSS | low polyreactivity |
